Results taken from PMC9736779, “Properties and Potential Antiproliferative Activity of Thrombin-Binding Aptamer (TBA) Derivatives with One or Two Additional G-Tetrads”.

Target: nucleolin (NCL) (Homo sapiens, UniProt P19338 1-710)
Test: SPR; 70 mM KCl; SPR (Biacore X-100, CM5): 10 mM HEPES, 70 mM KCl, pH 7.4, 25 C; analyte 5-500 uM; two-state reaction fit
Details: protein: commercial

nucleolin (NCL), sequence (P19338 whole entry): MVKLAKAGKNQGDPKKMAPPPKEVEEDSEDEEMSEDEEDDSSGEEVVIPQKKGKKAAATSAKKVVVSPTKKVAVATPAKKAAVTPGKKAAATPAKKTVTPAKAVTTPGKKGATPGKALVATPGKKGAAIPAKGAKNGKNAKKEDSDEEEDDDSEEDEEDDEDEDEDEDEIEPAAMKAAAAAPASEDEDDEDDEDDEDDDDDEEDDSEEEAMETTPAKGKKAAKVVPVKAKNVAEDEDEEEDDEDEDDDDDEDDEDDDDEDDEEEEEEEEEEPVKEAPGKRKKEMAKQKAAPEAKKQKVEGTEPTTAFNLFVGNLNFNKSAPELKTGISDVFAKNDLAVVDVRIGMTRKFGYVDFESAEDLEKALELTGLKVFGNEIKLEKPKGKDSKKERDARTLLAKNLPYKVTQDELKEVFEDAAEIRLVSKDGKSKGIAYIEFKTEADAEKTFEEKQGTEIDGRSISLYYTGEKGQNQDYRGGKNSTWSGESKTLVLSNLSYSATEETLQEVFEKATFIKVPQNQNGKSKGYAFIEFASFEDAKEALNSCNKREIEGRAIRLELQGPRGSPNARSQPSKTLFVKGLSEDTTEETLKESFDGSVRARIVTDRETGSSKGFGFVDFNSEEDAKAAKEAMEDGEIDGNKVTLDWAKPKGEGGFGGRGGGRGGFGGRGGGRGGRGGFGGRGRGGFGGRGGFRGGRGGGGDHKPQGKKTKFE

## GGTTGGTGTGGTTGG (structured_DNA) [TBA]
Antiparallel G4, intramolecular
  Kd: 62.5 µM

## GGGGTTGGGGTGTGGGGTTGGGG (structured_DNA) [TBAG4]
Antiparallel G4, two extra G-tetrads, intramolecular
  Kd: 13.5 µM

## GGGTTGGGTGTGGGTTGGG (structured_DNA) [TBAG3]
G4, one extra G-tetrad, intramolecular
  Kd: 1290 µM
